Measurements reported in US20060216236A1 (published 2006).

Target: integrin αvβ3 on human tumor cells (ECV304 bladder carcinoma, M21 melanoma) (human, UniProt P06756 31-1048; P05106 27-788)
Assay: cell-based or functional assay

Sequence of integrin αvβ3 on human tumor cells (ECV304 bladder carcinoma, M21 melanoma) (P06756 31-1048, chain 1 of 2): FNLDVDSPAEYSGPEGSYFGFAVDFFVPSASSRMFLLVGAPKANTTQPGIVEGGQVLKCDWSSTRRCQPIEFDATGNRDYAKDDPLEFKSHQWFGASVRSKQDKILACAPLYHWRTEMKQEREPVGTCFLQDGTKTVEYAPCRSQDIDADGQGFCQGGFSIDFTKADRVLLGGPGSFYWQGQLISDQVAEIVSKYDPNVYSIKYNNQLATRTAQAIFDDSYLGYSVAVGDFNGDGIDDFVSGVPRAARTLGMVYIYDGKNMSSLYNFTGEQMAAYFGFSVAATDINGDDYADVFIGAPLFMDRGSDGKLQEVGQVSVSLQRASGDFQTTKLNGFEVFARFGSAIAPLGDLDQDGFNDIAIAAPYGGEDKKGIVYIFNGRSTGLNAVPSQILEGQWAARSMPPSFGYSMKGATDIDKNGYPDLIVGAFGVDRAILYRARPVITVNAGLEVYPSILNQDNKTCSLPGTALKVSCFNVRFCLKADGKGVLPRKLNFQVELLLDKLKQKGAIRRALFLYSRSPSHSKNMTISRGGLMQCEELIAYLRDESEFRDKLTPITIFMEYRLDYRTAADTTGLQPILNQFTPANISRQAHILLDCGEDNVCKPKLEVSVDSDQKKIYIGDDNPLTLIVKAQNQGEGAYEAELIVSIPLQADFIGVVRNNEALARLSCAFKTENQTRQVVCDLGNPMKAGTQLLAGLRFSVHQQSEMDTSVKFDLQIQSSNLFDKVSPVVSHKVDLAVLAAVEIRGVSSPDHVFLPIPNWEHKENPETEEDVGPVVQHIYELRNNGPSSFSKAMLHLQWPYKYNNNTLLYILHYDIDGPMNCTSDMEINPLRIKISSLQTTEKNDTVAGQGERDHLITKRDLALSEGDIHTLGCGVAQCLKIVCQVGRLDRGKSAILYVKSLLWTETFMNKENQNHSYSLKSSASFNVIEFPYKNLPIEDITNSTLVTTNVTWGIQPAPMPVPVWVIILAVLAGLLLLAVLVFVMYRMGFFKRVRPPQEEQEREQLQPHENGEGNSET
Sequence of integrin αvβ3 on human tumor cells (ECV304 bladder carcinoma, M21 melanoma) (P05106 27-788, chain 2 of 2): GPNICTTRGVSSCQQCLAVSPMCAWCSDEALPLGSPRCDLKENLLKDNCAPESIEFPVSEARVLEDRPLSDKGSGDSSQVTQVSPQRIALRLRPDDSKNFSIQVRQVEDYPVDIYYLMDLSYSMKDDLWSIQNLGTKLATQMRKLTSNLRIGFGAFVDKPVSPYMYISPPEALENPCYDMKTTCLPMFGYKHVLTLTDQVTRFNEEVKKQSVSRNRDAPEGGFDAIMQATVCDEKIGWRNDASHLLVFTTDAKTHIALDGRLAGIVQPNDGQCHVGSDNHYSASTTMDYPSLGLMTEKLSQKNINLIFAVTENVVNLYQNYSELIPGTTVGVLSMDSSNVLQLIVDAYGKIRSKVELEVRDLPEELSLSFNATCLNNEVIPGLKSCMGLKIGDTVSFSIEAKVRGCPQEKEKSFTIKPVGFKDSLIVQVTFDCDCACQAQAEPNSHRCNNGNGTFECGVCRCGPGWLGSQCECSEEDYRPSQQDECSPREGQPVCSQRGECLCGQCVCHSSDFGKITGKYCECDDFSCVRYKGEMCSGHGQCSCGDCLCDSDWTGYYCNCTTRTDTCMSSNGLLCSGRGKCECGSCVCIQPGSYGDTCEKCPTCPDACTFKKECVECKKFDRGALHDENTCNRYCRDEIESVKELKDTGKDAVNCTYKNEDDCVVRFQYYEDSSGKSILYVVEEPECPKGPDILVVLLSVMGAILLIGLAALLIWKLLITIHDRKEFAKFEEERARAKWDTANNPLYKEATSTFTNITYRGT

relative level of IGFBP-4 RNA (real time PCR) in M21 cells on denatured collagen type-IV: ~8 fold | relative level of TSP-1 RNA (real time PCR) in M21 cells on denatured collagen type-IV: ~8 fold
B1: Mab LM609 (anti-αvβ3) (antibody, V domains shown)
VH: EVQLVESGGGLVKPGRSLRLSCAASGFAFSSYDMSWVRQIPEKRLEWVAKVSSGGGSTYYLDTVQGRFTISRDNAKNTLYLQMSSLNSEDTAMYYCARHNYGSFAYWGQGTLVTVSA
VL: DIVLTQSPATLSVTPGDSVSLSCQASQSISNHLHWYQQKSHESPRLLIKYRSQSISGIPSRFSGSGSGTDFALSINSVETEDFGMYFCQQSGSWPHTFGGGTKLEIK
